Our source for the Primary Neutralization Index (B cell culture supernatant) and Polyclonal Transfectant Neutralization Index values is patent US20240132578A1.

What all share (experiment): cell-based or functional assay
In experiment [1] the target is HIV-1 Env of pseudovirus MGRM-C-26 (HIV-1).
Experiment [2] has as its target HIV-1 Env of pseudovirus JRCSF (HIV-1) (UniProt P20871).
The target in experiment [3] is HIV-1 Env of pseudovirus 92TH021 (HIV-1).

B1: PGT-131 (B cell culture well 5136_H1) (antibody, V domains shown)
VH: QVQLQESGPGLVKPSETLSLTCTVSGDSINTGHHYWGWVRQVPGKGPEWIAHIHYNTAVLHNPALKSRVTISIFTLKNLITLSLSNVTAADTAVYFCVRSGGDILYYIEWQKPHWFYPWGPGILVTVSS
VL: QSALTQPPSASGSLGQSLTISCSGTGSDIGSWNFVSWYQQFPGRAPNLIIFEVNRRRSGVPDRFSGSKSGNTASLTVSGLRSEDEAEYFCSSLSGRWDIVFGGGTKVTVL
Consider B1, for which the values for the Primary Neutralization Index (B cell culture supernatant) in experiment [1], in experiment [2] and in experiment [3] were 1.2, 6.2 and 354, respectively.

B2: PGT-130 (B cell culture well 5147_N6) (antibody, V domains shown)
VH: QVQLQESGPGLVKPAETLSLTCSVSGESINTGHYYWGWVRQVPGKGLEWIGHIHYTTAVLHNPSLKSRLTIKIYTLRNQITLRLSNVTAADTAVYHCVRSGGDILYYYEWQKPHWFSPWGPGIHVTVSS
VL: QSALTQPPSASGSLGQSVTISCNGTSSDIGGWNFVSWYQQFPGRAPRLIIFEVNKRPSGVPGRFSGSKSGNSASLTVSGLQSDDEGQYFCSSLFGRWDVVFGGGTKLTVL
As for B2, the Polyclonal Transfectant Neutralization Index in experiment [1] was found to be 1.05; in experiment [2], 1.24; in experiment [3], 4.2. Further, the Primary Neutralization Index (B cell culture supernatant) is 3 in experiment [1], 19.3 in experiment [2] and 538 in experiment [3].
